Measured values: patent publication US20260109787A1 (NATIONAL UNIVERSITY CORPORATION YAMAGATA UNIVERSITY, published 2026)

Key:
[1] = target: T1, VHH-SpyCatcher (fragment released from VHH-SpyCatcher-CD3 H chain by thrombin); test: SDS-PAGE of the purified thrombin-cleaved sample
T1 construct: Seen only as a band on SDS-PAGE, together with VHH-SpyTag

[2] = target: T2, VHH-SpyCatcher-CD3 H chain; test: SDS-PAGE before and after thrombin cleavage; the complex bands are lost after cleavage
T2 construct: Fusion protein expressed in Expi293F cells; also called second protein; VHH-SpyCatcher-CD3 H chain region
Procedure: Next, it was examined whether the band at the estimated molecular weight of the complex in Example 1(3) above was derived from the complex that included the VHH-SpyTag-CD3 L chain and the VHH-SpyCatcher-CD3 H chain. Specifically, the protein was purified in the same manner as in Example 1(2) above, and the elution fraction after the purification was added to a thrombin buffer (2.5 mmol/l CaCl₂), 150 mmol/l NaCl, 20 mmol/l Tris-HCl (pH8.0)). After the addition, the resulting mixture was dialyzed for 6 hours. Then, thrombin (cleaving ability: 2 unit/μl, manufactured by Wako Pure Chemical Industries, Ltd.) was added in accordance with the yield of the protein. After the addition, the mixture was left to stand at 25° C. overnight. After the standing, a sample after the cleavage reaction was purified using a protein A column. After the purification, a purified thrombin-cleaved sample was obtained. Then, SDS-PAGE was conducted. The SDS-PAGE was conducted in the same manner as in Example 1(3) above, except that the purified thrombin-cleaved sample was used as a sample for the SDS-PAGE in addition to the purified sample. […]

[3] = target: T3, VHH-SnoopCatcher (fragment released from VHH-SnoopCatcher-Herceptin H chain by thrombin); test: SDS-PAGE of the purified thrombin-cleaved sample
T3 construct: Seen only as a band on SDS-PAGE, together with VHH-SnoopTag

B1: VHH-SpyTag (fragment released from VHH-SpyTag-CD3 L chain by thrombin) (other, not shown: small tags and cut ends)
chain: QVQLVESGGALVQPGGSLRLSCAASGFPVNRYSMRWYRQAPGKEREWVAGMSSAGDRSSYEDSVKGRFTISRDDARNTVYLQMNSLKPEDTAVYYCNVNVGFEYWGQGTQVTVSSGGSGGAHIVMVDAYKPTKGGSGGGGSGG
notes: Seen only as a band on SDS-PAGE, together with VHH-SpyCatcher
- binding result [1]: binds

B2: VHH-SpyTag-CD3 L chain (other)
chain: QVQLVESGGALVQPGGSLRLSCAASGFPVNRYSMRWYRQAPGKEREWVAGMSSAGDRSSYEDSVKGRFTISRDDARNTVYLQMNSLKPEDTAVYYCNVNVGFEYWGQGTQVTVSSGGSGGAHIVMVDAYKPTKGGSGGGGSGGLVPRGSHMHMDIVLTQSPAIMSASPGEKVTMTCSASSSVSYMNWYKQKSGTSPKRWTYDTSKLASGVPARFSGSGSGTSYSLTISSMEAEDAATYYCQQWSSNPPTFGSGTKLEIKRTVAAPSVFIFPPSDEQLKSGTASVVCLLNNFYPREAKVQWKVDNALQSGNSQESVTEQDSKDSTYSLSSTLTLSKADYEKHKVYACEVTHQGLSSPVTKSFNRGEC
notes: Fusion protein expressed in Expi293F cells; also called first protein; VHH-SpyTag-CD3 L chain region
- binding result [2]: binds

B3: VHH-SnoopTag (fragment released from VHH-SnoopTag-Herceptin L chain by thrombin) (other, not shown: small tags and cut ends)
chain: QVQLVESGGALVQPGGSLRLSCAASGFPVNRYSMRWYRQAPGKEREWVAGMSSAGDRSSYEDSVKGRFTISRDDARNTVYLQMNSLKPEDTAVYYCNVNVGFEYWGQGTQVTVSSGGSGGKLGDIEFIKVNKGGSGGGGSGG
notes: Seen only as a band on SDS-PAGE, together with VHH-SnoopCatcher
- binding result [3]: binds
